Experimental data reported in patent US20190218553.

Target: von Willebrand factor (VWF) (Homo sapiens) (UniProt P04275)
Experiment: filter
Details: mAmCmGmAmAmCmUmGfCfCfCmUmC(6GLY)mGmAfCrGfCmAmCmAmGmAmCmGfUidT (6GLY = hexaethylene glycol linker); Bmax 60%; 2 mM CaCl2, 37 C

ACGAACUGCCCUCGACGCACAGACGU [DTRI-009]
Kd: 11 nM
